In patent US20090075898A1, “Complement C3A Derived Peptides and Uses Thereof” (Yeda Research and Development Co. Ltd. at the Weizmann …, priority 2005, published 2009):

Experiments:
[1] = tested on: bone marrow derived mast cells (BMMC); assay: Secretory response (β-hexosaminidase release) of bone marrow derived mast cells; type: cell-based, mouse
Experimental: Cells. Bone marrow derived mast cells (BMMC) were prepared from Balb/c mice as described by Nagao et al. (Science 212: 333-335, 1981). After 3 weeks, an approximately 95% pure mast cell population was obtained, showing high expression of FcεRI and stem cell factor receptor (c-kit), as measured by flow cytometry.
(§1) Secretory response of mast cells.
Similar experiments were carried out using bone-marrow derived mast cells (BMMC). […] The control peptide of the sequence DVSNYITR had no effect on either system.

[2] = tested on: rat peritoneal mast cells (RPMC); assay: Secretory response (β-hexosaminidase release) of rat peritoneal mast cells; type: cell-based
Text: Rat peritoneal mast cells (RPMC) were isolated as previously described (Kim et al. J. Immunol. 162:4960-4965, […]). Mast cell preparations were ca. 95% pure, as evaluated by flow cytometric monitoring of FcεRI surface expression. Compound 48/80, a specific activator of serosal type mast cells elicited about 50% release of the total β-hexosaminidase content of the isolated rat peritoneal mast cells.
as §1
While mucosal type mast cells are non-responsive to peptidergic stimuli, the serosal type ones have been known for a long time to be stimulated by cationic secretagogues. The anaphylatoxic peptides C3a and C5a initiate the cells' secretory response by binding to their respective receptors expressed by serosal type mast cells. To investigate the effect of the peptides on this mast cell-type, RPMC were used. As expected, these cells did respond to both C5a and C3a (Table 2). However, degranulation was inhibited when peptides C3a7 or C3a9 were added to the IgE-sensitized RPMC and stimulated, 5 min later with a suboptimal antigen dose (Table 2).

[3] = target: T1, FcεRI β-chain (Mus musculus, UniProt P20490); assay: Covalent cross linking of C3a to BMMC, immunoprecipitation and Western blot; type: binding; settings: C3a 50 μg/ml, BS3 cross linker
T1 construct: endogenous in cells; host or cells: BMMC (bone marrow derived mast cells)
T1 sequence (P20490 1-235): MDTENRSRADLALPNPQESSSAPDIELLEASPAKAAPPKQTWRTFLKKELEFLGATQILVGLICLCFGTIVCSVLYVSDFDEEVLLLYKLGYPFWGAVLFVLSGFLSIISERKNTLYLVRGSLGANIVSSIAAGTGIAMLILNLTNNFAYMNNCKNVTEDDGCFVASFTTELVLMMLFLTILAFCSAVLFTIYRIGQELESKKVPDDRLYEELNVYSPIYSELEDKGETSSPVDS
T1 sequence (P20489 24-250 partner): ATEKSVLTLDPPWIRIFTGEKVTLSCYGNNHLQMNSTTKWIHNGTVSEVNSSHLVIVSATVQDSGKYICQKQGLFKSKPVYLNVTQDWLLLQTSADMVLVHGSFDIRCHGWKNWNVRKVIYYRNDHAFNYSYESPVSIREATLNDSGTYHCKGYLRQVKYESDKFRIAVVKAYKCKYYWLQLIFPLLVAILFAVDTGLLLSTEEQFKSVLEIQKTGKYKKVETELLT
T1 sequence (P20491 19-86 partner): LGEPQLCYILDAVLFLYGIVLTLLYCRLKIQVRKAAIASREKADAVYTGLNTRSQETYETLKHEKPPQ
Experimental: Covalent cross linking of C3a to BMMC. BMMC were washed and incubated with C3a (50 μg/ml per 15−20×10^6 cells/sample, in PBS) for 10 min at room temperature. After another incubation of 20 min at room temperature with 5 mM of the cross linking reagent bis-(sulphosuccinimidyl)-suberate (BS3, PIERCE, Ill., USA) cells were washed and lysed. Polyclonal rabbit antibodies specific to C3a (Behringwerke AG, Germany) were used for immunoprecipitation. Western blotting was carried out by an FcεRI β chain specific antibody kindly provided by Jean Pierre Kinet (Harvard University, Boston, USA). As secondary antibody, HRPO-conjugated goat anti-mouse IgG (DAKO, Frank Diagnosztika Kft, Hungary) was used. Detection was performed by ECL.
Covalent cross-linking of C3a to BMMC. Since no C3a-receptors could be detected on mucosal type mast cells, the possibility that the peptides exert their inhibitory effect via interaction with a different cell membrane component, probably the type 1 Fcε-receptor, was examined. […] Since the ITAM-bearing β-chain had earlier been reported to act as an amplifier of the FcεRI response, the interaction of C3a with this membrane protein on BMMC was determined. Cells were incubated with C3a followed by adding the covalent cross linking agent, BS^3-reagent. […] Protein samples were separated by SDS-PAGE and analyzed by Western-blotting, using FcεRI β-chain specific antibodies.

[4] = tested on: RBL-2H3 cells; settings: Erdei et al. 1995, 1999; cited from earlier work
[5] = target: rat FcεRI β chain (Rattus norvegicus, UniProt P13386); assay: Surface plasmon resonance, immobilized extracellular loop peptides of rat FcεRI β chain; settings: SPR
[6] = target: human FcεRI β chain (Homo sapiens, UniProt Q01362); assay: Surface plasmon resonance, immobilized extracellular loop peptides of human FcεRI β chain; settings: SPR

C3a: human complement component C3a, a 77-mer peptide (SEQ ID NO:1), isolated
Inhibition of IgE-mediated secretory response of BMMC [1]: found to inhibit | Stimulation of secretory response of RPMC by the peptide itself ([2]; non-sensitized cells, no antigen): did respond | Inhibitory effect (IC50) on the IgE-mediated degranulation of rat peritoneal mast cells (RPMC) ([2]; suboptimal antigen-dose): Activation* | Cross-linked complex with FcεRI β-chain on BMMC [3]: covalent complex | Inhibition of IgE-mediated degranulation of RBL-2H3 cells (literature) [4]: inhibit | Interaction with the second extracellular loop of rat FcεRI β chain [5]: No interaction could be detected | Kd ([5]; read-out: Kd, first extracellular loop of rat FcεRI β chain, koff/kon): 520 nM | Interaction with the second extracellular loop of human FcεRI β chain [6]: No interaction could be detected | Kd ([6]; read-out: Kd, first extracellular loop of human FcεRI β chain, koff/kon): 250 nM
